From the supplement of paper PMC9112550, “Optimization of the antimicrobial peptide Bac7 by deep mutational scanning” (BMC Biology, 2022)

tested on: Escherichia coli TOP10; experiment: shrunken log2 fold change of peptide-encoding DNA abundance (4.5 h post-induction vs induction); higher = less antimicrobial activity (less host growth inhibition); conditions: time post-induction: 4.5 h; library: site-saturation at positions 5, 18, 19, 20
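Further: peptides expressed intracellularly from a pBAD plasmid library in pooled LB shake-flask culture, induced with 0.3% L-arabinose, DNA abundance read by NGS, three biological replicates, DESeq2 with apeglm shrinkage.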

Sequence | shrunken log2 fold change
RRIRMRPPRLPRPRPRPAQSPRP | 2.88
RRIRPRPPRLPRPRPRPQGHPRP | 0.05
RRIRLRPPRLPRPRPRPWSDPRP | -0.188
RRIRGRPPRLPRPRPRPKHLPRP | 0.0257
RRIRRRPPRLPRPRPRPGKSPRP | 0.0256
RRIRYRPPRLPRPRPRPNQMPRP | -0.194
RRIRMRPPRLPRPRPRPQFCPRP | 0.0736
RRIRHRPPRLPRPRPRPTIKPRP | -0.304
RRIRWRPPRLPRPRPRPSKTPRP | 0.0507
RRIRTRPPRLPRPRPRPWKVPRP | -0.00663
RRIRTRPPRLPRPRPRPISPPRP | -0.357
RRIRFRPPRLPRPRPRPKNHPRP | -0.347
RRIRWRPPRLPRPRPRPFTHPRP | -0.297
RRIRHRPPRLPRPRPRPNIEPRP | -0.172
RRIRIRPPRLPRPRPRPSTRPRP | -0.54
RRIRHRPPRLPRPRPRPQNSPRP | -0.423
RRIRPRPPRLPRPRPRPDILPRP | -0.51
RRIRRRPPRLPRPRPRPHHIPRP | -0.637
RRIRTRPPRLPRPRPRPTPWPRP | 0.411
RRIRWRPPRLPRPRPRPFKLPRP | -0.044
RRIRNRPPRLPRPRPRPNMDPRP | -0.0443
RRIRDRPPRLPRPRPRPYFVPRP | -0.362

Sequence | shrunken log2 fold change
RRIRQRPPRLPRPRPRPHHNPRP | -0.706
RRIRGRPPRLPRPRPRPHNVPRP | 0.0498
RRIRPRPPRLPRPRPRPVGCPRP | 1.56
RRIRWRPPRLPRPRPRPECHPRP | 0.563
RRIRVRPPRLPRPRPRPMVKPRP | -0.166
RRIRWRPPRLPRPRPRPWCEPRP | -0.372
RRIRARPPRLPRPRPRPRTFPRP | 0.287
RRIRSRPPRLPRPRPRPSGMPRP | -0.311
RRIRPRPPRLPRPRPRPAVGPRP | 0.414
RRIRMRPPRLPRPRPRPRNKPRP | 0.667
RRIRCRPPRLPRPRPRPYKIPRP | -0.785
RRIRNRPPRLPRPRPRPIFFPRP | 0.0887
RRIRSRPPRLPRPRPRPLFTPRP | -0.0175
RRIRWRPPRLPRPRPRPHWDPRP | -0.0409
RRIRSRPPRLPRPRPRPEQYPRP | -0.256
RRIRVRPPRLPRPRPRPFCMPRP | -0.537
RRIRYRPPRLPRPRPRPYGIPRP | -0.064
RRIRIRPPRLPRPRPRPNSYPRP | -0.084
RRIRLRPPRLPRPRPRPRWSPRP | 0.129
RRIRERPPRLPRPRPRPRYTPRP | -0.244
RRIRARPPRLPRPRPRPCKNPRP | 0.138
RRIRTRPPRLPRPRPRPVFWPRP | 0.386

Sequence | shrunken log2 fold change
RRIRHRPPRLPRPRPRPHPWPRP | -0.0988
RRIRTRPPRLPRPRPRPQNTPRP | -0.622
RRIRWRPPRLPRPRPRPEVYPRP | -0.0423
RRIRYRPPRLPRPRPRPSWRPRP | -0.137
RRIRSRPPRLPRPRPRPTEIPRP | -0.0163
RRIRQRPPRLPRPRPRPMAIPRP | -0.326
RRIRARPPRLPRPRPRPCWNPRP | -0.0387
RRIRVRPPRLPRPRPRPPGKPRP | 0.0564
RRIRSRPPRLPRPRPRPTPDPRP | 0.441
RRIRTRPPRLPRPRPRPGSTPRP | 0.857
RRIRVRPPRLPRPRPRPNSYPRP | -0.309
RRIRWRPPRLPRPRPRPCTSPRP | -0.174
RRIRHRPPRLPRPRPRPIGFPRP | -0.0167
RRIRDRPPRLPRPRPRPAIHPRP | 0.00344
RRIRYRPPRLPRPRPRPKHPPRP | -0.155
RRIRFRPPRLPRPRPRPEQGPRP | 0.313
RRIRHRPPRLPRPRPRPYPFPRP | -0.772
RRIRFRPPRLPRPRPRPCSHPRP | -0.336
RRIRCRPPRLPRPRPRPHFWPRP | 0.125
RRIRHRPPRLPRPRPRPPEQPRP | -0.000687
RRIRQRPPRLPRPRPRPTRQPRP | 0.798
RRIRYRPPRLPRPRPRPIEPPRP | -0.111

Sequence | shrunken log2 fold change
RRIRLRPPRLPRPRPRPWVGPRP | 0.233
RRIRTRPPRLPRPRPRPVRSPRP | 0.641
RRIRGRPPRLPRPRPRPFFWPRP | 0.499
RRIRSRPPRLPRPRPRPTQYPRP | -0.0116
RRIRTRPPRLPRPRPRPPVLPRP | 0.0185
RRIRCRPPRLPRPRPRPCRAPRP | -0.0671
RRIRYRPPRLPRPRPRPLDGPRP | -0.467
RRIRNRPPRLPRPRPRPMTGPRP | -0.149
RRIRHRPPRLPRPRPRPKQQPRP | -0.0484
RRIRVRPPRLPRPRPRPKKHPRP | -0.0486
RRIRPRPPRLPRPRPRPMIDPRP | -0.16
RRIRSRPPRLPRPRPRPNLYPRP | -0.167
RRIRYRPPRLPRPRPRPVALPRP | -0.404
RRIRGRPPRLPRPRPRPKHRPRP | 0.449
RRIRDRPPRLPRPRPRPDKGPRP | -0.0944
RRIRCRPPRLPRPRPRPRTAPRP | 0.304
RRIRWRPPRLPRPRPRPKVQPRP | 0.00116
RRIRKRPPRLPRPRPRPTLHPRP | 0.359
RRIRARPPRLPRPRPRPPNNPRP | 0.0107
RRIRQRPPRLPRPRPRPCDSPRP | -0.0167
RRIRVRPPRLPRPRPRPANIPRP | -0.156
RRIRVRPPRLPRPRPRPFEPPRP | 0.126

Sequence | shrunken log2 fold change
RRIRTRPPRLPRPRPRPEEPPRP | 0.0165
RRIRPRPPRLPRPRPRPKKWPRP | -0.0589
RRIRIRPPRLPRPRPRPQYWPRP | -0.361
RRIRLRPPRLPRPRPRPMLQPRP | -0.0201
RRIRPRPPRLPRPRPRPISGPRP | -0.154
RRIRCRPPRLPRPRPRPPAGPRP | 0.79
RRIRSRPPRLPRPRPRPQFVPRP | -0.184
RRIRTRPPRLPRPRPRPILFPRP | -0.209
RRIRYRPPRLPRPRPRPMNYPRP | -0.49
RRIRRRPPRLPRPRPRPKVFPRP | -0.00912
RRIRTRPPRLPRPRPRPSGVPRP | 0.00112
RRIRCRPPRLPRPRPRPTLEPRP | 0.0452
RRIRPRPPRLPRPRPRPSNAPRP | 0.055
RRIRPRPPRLPRPRPRPYKGPRP | -0.437
RRIRERPPRLPRPRPRPRRYPRP | -0.184
RRIRPRPPRLPRPRPRPSLMPRP | -0.155
RRIRARPPRLPRPRPRPVQNPRP | 0.814
RRIRQRPPRLPRPRPRPDYQPRP | 0.00672
RRIRARPPRLPRPRPRPWVKPRP | 0.0825
RRIRWRPPRLPRPRPRPDHSPRP | -0.198
RRIRYRPPRLPRPRPRPLESPRP | -0.0422
